This is an account of results in US20230295310A1 (ABCELLERA BIOLOGICS, published 2023).

The target of the assay is T1, human CD3e/d (human, UniProt P07766 23-126; P04234 22-105).
T1 construct: Bought soluble protein; also called hCD3e/d; human CD3/ed (Sino CT038-H2508H)
The assay can be described thus: SPR (Carterra LSA), mAb on chip. As to the method:
High-throughput surface plasmon resonance (SPR) coupled kinetic experiments were performed on a Carterra LSA® instrument equipped with an HC-30M chip type (Carterra, USA). The instrument uses two microfluidic modules, a single-flow cell (SFC) and a 96 printhead, to deliver samples to the chip surface via back-and-forth cycling of a fixed sample volume. An up to 384-ligand array is generated by docking the MFC onto each of the four nested print block locations in a serial manner.
The purified mAbs were immobilized on a Carterra LSA® HC-30M chip by direct coupling. The chip surface was first activated by flowing a freshly prepared 1:1:1 activation mix of 100 mM MES pH 5.5, 100 mM S-NHS, 400 mM EDC for 7 min. mAbs diluted to 10 μg/mL in 10 mM NaOAc pH 4.25+0.01% TWEEN®20 were then injected and printed onto the chip surface simultaneously using the MFC printhead for 10 min. Finally, the chip surface was quenched by flowing 1 M ethanolamine for 7 min (to block the excess reactive esters), followed by 2 wash steps of 15 s each in 25 mM MES pH 5.5. In addition to expressed and purified mAbs, relevant benchmarks and negative control mAbs were also printed on the chip surface.
The data were analyzed using the Carterra Kinetics analysis software. Briefly, the data were referenced with the interstitial reference spots and double-referenced to a buffer cycle, and then fit globally to a 1:1 Langmuir binding model to determine their apparent association (ka) and dissociation (kd) kinetic rate constants and binding affinity constants (KD).

T1 sequence (P07766 23-126, chain 1 of 2): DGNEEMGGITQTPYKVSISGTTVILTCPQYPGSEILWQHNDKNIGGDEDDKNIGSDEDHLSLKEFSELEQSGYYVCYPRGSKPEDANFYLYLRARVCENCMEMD
T1 sequence (P04234 22-105, chain 2 of 2): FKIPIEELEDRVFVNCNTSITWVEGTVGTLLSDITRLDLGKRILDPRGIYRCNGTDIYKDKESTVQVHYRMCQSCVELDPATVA

B1: mAb 228 (antibody, V domains shown)
VH: EVQLLESGGGLVQPGGSLRLSCAASGFTFSNYAMNWVRQAPGKGLEWVSTISGSGGGKYYADSVKGRFTISRDNSKNTLYLHMNSLRAEDTAVYYCAKDPVQDRYYFYYYYMDVWGKGTTVTVSS
VL: EIVLTQSPDFQSVTPKEKVTITCRASQSIGSSLHWYQQKPDQSPKLLIKYASQSISGVPSRFSGSGSGTDFTLTINSLEAEDAAAYYCHQSSSLPHTFGQGTKLEIK
notes: VH and VL only
Turning to B1, binding was put at a Kd of 0.025 µM. This counts as double-digit nanomolar.

B2: mAb 230 (antibody, V domains shown)
VH: EVQLLESGGGLVQPGGSLRLSCAASGFTFSSYAMSWVRQAPGKGLEWVSSISGSGGSRYYADSVKGRFTISRDNSKNTLYLQMNSLRAEDTAVYYCAKDPVQDRYYFYYYYMDVWGKGTTVTVSS
VL: EIVLTQSPDFQSVTPKEKVTITCRASQSIGSSLHWYQQKPDQSPKLLIKYASQSISGVPSRFSGSGSGTDFTLTINSLEAEDAAAYYCHQSSSLPHTFGQGTKLEIK
notes: VH and VL only
Take B2: the Kd worked out at 0.018 µM. This Kd and that of the molecule before are within 1.5-fold of each other.

B3: mAb 172 (antibody, V domains shown)
VH: EVQLVESGGGLVQPGRSLRLSCTTSGFTFDDYTMHWVRQVPGKGLEWVSDISWNSGSVGYADSVKGRFTISRDNAKNSLYLQMNSLRAEDTALYYCVKDSSGYGHYFHYYMDVWGKGTTVTVSS
VL: DIQMTQSPSSLSASVGDRVTITCRASQSISNYLNWYQVKPGKAPKVLIYAASSLQSGVPSRFSGSGSGTDFTLTISSLQPEDFVSYYCHQSYNAPITFGQGTRLESK
notes: VH and VL only
The molecule B3 returned a Kd of 0.00483 µM.

B4: mAb 178 (antibody, V domains shown)
VH: EVQLVESGGGLVQPGRSLRLSCAASGFTFDDYTMHWVRQAPGKGLEWVSDISWNSGTIGYADSVKGRFTISRDNAKNSLYLQMNSLRAEDTALYYCVKDSSGYGHYYKYYMDVWGKGTTVTVSS
VL: DIQMTQSPSSLSASVGDRVTITCRASQSISNYLNWYQQKAGKVPKVLIYGSSSLQSGVPSRFSGSGSGTDFTLTISSLQPEDFASYYCQQTYSSPLTFGGGTKVDFK
notes: VH and VL only
As to B4, the Kd is 0.000992 µM.

B5: mAb 179 (antibody, V domains shown)
VH: EVQLVESGGGLVQPGRSLRLSCAASGFTFDDYTMHWVRQTPGKGLEWVSDISWNSGSIGYADSVKGRFTISRDNAKNTLYLQMNSLRAEDTALYYCVKDSSGYGHYLYYYMDVWGKGTTVTVSS
VL: DIQMTQSPSSLSASVGDRVTITCRASQSIRNYLNWYQQSPGRAPKLLIFSASSLQSGVPSRFSGSGSGTDFTLTISSLQPEDFVTYYCQQRYSTPITFGQGTRLEIK
notes: VH and VL only
In turn, B5 returned a Kd of 0.00772 µM.

B6: mAb 173 (antibody, V domains shown)
VH: EVQLVESGGGLVQPGRSLRLSCAASGFTFDDYTMHWVRQVPGKGLEWVSDISWNSGSVGYADSVKGRFTISRDNAKNSLYLQMNSLRAEDTALYYCVKDSSGYGHYFHYYMDVWGKGTTVTVSS
VL: DIQMTQSPSSLSASVGDRVTITCRASQSISNYLNWYQVKPGKAPKVLIYAASSLQSGVPSRFSGSGSGTDFTLTISSLQPEDFVSYYCHQSYNTPITFGQGTRLEIK
notes: VH and VL only
B6 showed a Kd of 0.00711 µM.

B7: mAb 176 (antibody, V domains shown)
VH: EVELVESGGGLVQPGRSLRLSCAASGFKFDDYTMHWVRLPPGKGLEWVSGISWNSGTIDYGDSVKGRFTISRDNAKNSLYLQMNSLRVEDTALYYCAKDTSGYGHYFYYYMDVWGKGTTVTVSS
VL: DIQMTQSPSSLSASIGDRVSITCRTSQIINNYLNWYQQKPGKAPKVLIYSASSLQSGVPSRFSGSGSGTDFTLTINSLQPEDFATYYCQQSYNFPITFGQGTRLELK
notes: VH and VL only
In the case of B7, the Kd was 0.00349 µM.

B8: mAb 177 (antibody, V domains shown)
VH: EVQLVESGGGLVQPGMSLRLSCAASGFTFDDYTMHWVRQSPGKGLEWVAGISWNSGTIGYGDSMKGRFTISRDNAKNSLDLQMNSLRVEDTALYYCAKDTSGYGHYYYYFMDVWGKGTTVTVSS
VL: DIQMTQSPSSLSASIGDRVSITCRTSQIINNYLNWYQQKPGKAPKLLIYSASSLQSGVPSRFSGSGSGTDFTLTLSSLQPEDFATYFCQQSYNFPITFGQGTRLELK
notes: VH and VL only; The printed VL holds a letter 'U'
Molecule B8 yielded a Kd of 0.0411 µM.

B9: mAb 171 (antibody, V domains shown)
VH: EVQLVESGGGLVQPGRSLRLSCAASGFTFADYTMHWVRQAPGQGLEWVSGISWNSGSIDYADSVKGRFIISRDNAKKTLYLQMNSLRAEDTALYYCAKDSSGYGHYYFYYLDVWGKGTTVTVSS
VL: EIVMTQSPATLSVSPGERATLSCRASQSVSSNLAWYQQKPGQAPRLLIYSTSTRATGIPARFSGSRSGTEFTLTISSLQSEDSAVYYCQQYNNWPHFGQGTRLEIK
notes: VH and VL only
Molecule B9 came in with a dissociation constant (Kd) of 0.0184 µM.

B10: mAb 167 (antibody, V domains shown)
VH: EVHLVESGGGLVQPGRSLRLSCAASGFTFDDYAMHWVRQAPGKGLEWVSGISWNSGTIGYADSVKGRFTISRDNAKNSLYLEMNSLRAEDTALYYCAKDSSGYGHYYHYYIDVWGTGTTVTVSS
VL: EIVMTQSPATLSVSPGGRATLSCRASQSVGSNLAWYQQKPGQAPRLLIYDASTRATGIPARFRGSGSGTEFTLTISGLQSEDFAVYYCQLYYNWPHFGQGTRLEIK
notes: VH and VL only
In turn, B10 returned a Kd of 0.00626 µM. Against the preceding molecule, the Kd is about 2.9-fold lower.

B11: mAb 128 (antibody, V domains shown)
VH: EVQLVESGGGLVQPGRSLRLSCAASGFTFDDYTMHWVRQAPGKGLEWVSGISWNSGSIGYADSVKGRFTISRDNAKNSLYLQMNSLRAEDTALYYCAKDSSGYGYYYYYSMDVWGKGTTVTVSS
VL: EIVMTQSPATLSVSPGERATLSCRASQSVSSNLAWYQQKPGQAPRLLIYGASTRATGIPARFSGSGSGTEFTLTISSLQSEDFAVYYCQLYYNWPHFGQGTRLAIK
notes: VH and VL only
Molecule B11 returned a Kd of 0.186 µM.

B12: mAb 126 (antibody, V domains shown)
VH: EVQLVESGGGLVQPGRSLRLSCAASGFTFNDYTMHWVRQVPGKGLEWVSGISWNSGSIDYADSVKGRFTISRDNAKNSLYLQMNSLRAEDTALYYCAKDSSGYGYYYYYYMDVWGKGTTVTVSS
VL: EIVMTQSPATLSVSPGERATLSCRASQSVSINLAWYQQKPGQAPRLLIYGASTRATGIPARFSGSGSGTEFTLTISSLQSEDFAVYYCQLYHNWPHFGQGTRLEIK
notes: VH and VL only
For the molecule B12, binding was characterised by a dissociation constant (Kd) of 0.00972 µM.

B13: mAb 161 (antibody, V domains shown)
VH: EVQLVESGGGLVQPGRSLRLSCAASGITFADYTMHWVRQAPGKGLEWVSGISWNSGSIDYADSVKGRFTISRDNAKKTLYLQMNRLRAEDTALYYCAKDSSGYGHYYFYYLDVWGKGTTVTVSS
VL: EIVMTQSPATLSVSPGERATLSCRASQSVSNNLAWYQQKPGQAPRLLIYSTSTRATGIPARFSGSRSGTEFTLTISSLQSEDSAVYYCQQYNNWPHFGQGTRLEIK
notes: VH and VL only
B13: the Kd is 0.0241 µM.

B14: mAb 162 (antibody, V domains shown)
VH: EVQLVESGGGLVQPGRSLRLSCAASGFTFDNYAMHWVRQAPGKGLEWVSGISWNSGSIGYADSVKGRFTISRDNAKNSLYLELNSLRAEDTALYYCAKDSSGYGYYYNYYMDVWGKGTTVTVSS
VL: EIVMTQSPATLSVSPGERATLSCRASQSVRSNLAWYQQKPGQAPRLLIYGASTRATGIPAKFSGSGSGTEFTLTISSLQSEDFAVYYCQYYYNWPHFGQGTRLEIK
notes: VH and VL only
B14 registered a Kd of 0.0194 µM.

B15: mAb 160 (antibody, V domains shown)
VH: EVQLVESGGGLVQPGRSLRLSCAVSGFTFNDYTMHWVRQVPGKGLEWVSGISWNSGSIGYADSVKGRFTISRDNAKNSLYLQMNSLRAEDTALYFCAKDSSGYGHYYYYYMDVWGRGTTVTVSS
VL: EIVMTQSPATLSVSPGERATLSCRASQSVRKNLAWYQQKPGQAPRLLIYGASTRATGIPARFSGSGSGTEFTLTISSLQSEDFAVYYCQLYNNWPHFGQGTRLEIK
notes: VH and VL only
B15 had a Kd of 0.0152 µM.

B16: mAb 170 (antibody, V domains shown)
VH: EVQLVESGGGLVRPGRSLRLSCAASGFTFDDYTMHWVRQAPGKGLEWVSGISWNSGSIGYADSVKGRFTISRDNAKNSLYLQMNSLRAEDTALYYCSKDSSGYGYYLNYSLDVWGKGTTVTVSS
VL: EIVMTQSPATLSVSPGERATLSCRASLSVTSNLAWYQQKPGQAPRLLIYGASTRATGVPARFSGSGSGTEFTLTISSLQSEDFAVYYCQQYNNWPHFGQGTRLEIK
notes: VH and VL only
Molecule B16 registered a dissociation constant (Kd) of 0.0719 µM.

B17: mAb 121 (antibody, V domains shown)
VH: EVQLVESGGGLVQPGRSLRLSCATSGFTFADYTMHWVRQAPGKGLEWVSGISWNSGSIDYADSVKGRFTISRDNAKKSLYLQMNSLRAEDTALYFCAKDSSGYGHYYFYYLDVWGKGTTVTVSS
VL: EIVMTQSPGTLSVSPGKRATLSCRASQSVSSNLAWYQQKPGQGPRLLIYSTSTRATGIPARFSGSGSGTEFTLTISSLQSEDSAVYYCQHYNNWPHFGQGTRLEIK
notes: VH and VL only
The molecule B17 registered a Kd of 0.021 µM. This Kd lies about 3.4-fold lower than the previous one.

B18: mAb 118 (antibody, V domains shown)
VH: EVQLVESGGGLVQPGRSLRLSCAASGFTFDDYTMHWVRQAPGKGLEWVSGISWNSGSIGYADSVKGRFTISRDNAKNSLYLQMNSLRAEDTALYYCSKDSSGYGYYLNYSLDVWGKGTTVTVSS
VL: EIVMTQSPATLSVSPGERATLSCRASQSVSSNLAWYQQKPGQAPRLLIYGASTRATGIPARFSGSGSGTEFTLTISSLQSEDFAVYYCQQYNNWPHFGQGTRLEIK
notes: VH and VL only
B18: the Kd is 0.101 µM. Compared with the last molecule, the Kd is about 4.8-fold higher.

B19: mAb 158 (antibody, V domains shown)
VH: EVQLVESGGGLVQPGRSLRLSCAASGFTFADYTMHWVRQVPGKGLEWVSGISWNSGSVDYADSVKGRFTISRDNAKKTLYLQMNSLRAEDTALYYCAKDSSGYGHYYFYYLDVWGKGTTVTVSS
VL: EIVMTQSPATLSVSPGERATLSCRATQSVSSNLAWYQQKPGQAPRLLIYSTSTRATGIPARFSGSRSGTEFTLTISSLQSEDSAVYYCQQYNNWPHFGQGTRLEIK
notes: VH and VL only
For the molecule B19, the Kd turned out to be 0.0103 µM.

B20: mAb 140 (antibody, V domains shown)
VH: QVQLVESGGGVVQPGRSLRLSCAASGFTFSTYGMHWVRQAPGKGLEWVAVIWYDGSHKYYADSVKGRFTISRDNSKNTLYLQMNSLRAEDTAVYYCARTGITGTTAYFYFDYWGQGTLVTVSS
VL: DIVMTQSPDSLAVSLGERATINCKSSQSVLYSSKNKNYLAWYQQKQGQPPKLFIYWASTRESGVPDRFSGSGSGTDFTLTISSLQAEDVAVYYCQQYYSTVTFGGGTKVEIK
notes: VH and VL only
In turn, B20 gave a Kd of 0.635 µM.
